The source of these data is PMC7187929 (Biochimica et biophysica acta. Bioenergetics, 2017).

In series [1] the target is HtSH (soluble NAD+-reducing [NiFe]-hydrogenase, HoxFUYH) (Hydrogenophilus thermoluteolus, UniProt A0A077L6X8). Briefly: fluorometric FMN determination in purified protein. Conditions: bound cofactor content of purified enzyme. The series is classed as binding.
Series [2] concerns the target HoxFU module of HtSH (Hydrogenophilus thermoluteolus TH-1T) (Hydrogenophilus thermoluteolus TH-1T). Briefly: co-purification.
Substrate in series [3]: NC(=O)C1=CN([C@@H]2O[C@H](COP(=O)(O)OP(=O)(O)OC[C@H]3O[C@@H](n4cnc5c(N)ncnc54)[C@H](O)[C@@H]3O)[C@@H](O)[C@H]2O)C=CC1
In words: purified protein. The note with it: benzyl viologen as electron acceptor, 50 °C.

Substrate in series [4]: NC(=O)c1ccc[n+]([C@@H]2O[C@H](COP(=O)(O)OP(=O)(O)OC[C@H]3O[C@@H](n4cnc5c(N)ncnc54)[C@H](O)[C@@H]3O)[C@@H](O)[C@H]2O)c1
In words: purified protein. Conditions: H2 as electron donor, 50 °C, kcat at pH 6.5.

Chain of HtSH (soluble NAD+-reducing [NiFe]-hydrogenase, HoxFUYH) (A0A077L885 1-242 partner, one chain of several): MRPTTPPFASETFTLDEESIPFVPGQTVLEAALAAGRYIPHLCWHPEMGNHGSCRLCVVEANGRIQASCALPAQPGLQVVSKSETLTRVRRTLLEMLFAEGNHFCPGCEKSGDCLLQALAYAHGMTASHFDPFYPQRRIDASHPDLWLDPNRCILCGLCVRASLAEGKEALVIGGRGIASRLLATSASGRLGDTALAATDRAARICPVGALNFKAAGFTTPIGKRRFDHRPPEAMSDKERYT
Chain of HtSH (soluble NAD+-reducing [NiFe]-hydrogenase, HoxFUYH) (A0A077L7R5 1-189 partner, one chain of several): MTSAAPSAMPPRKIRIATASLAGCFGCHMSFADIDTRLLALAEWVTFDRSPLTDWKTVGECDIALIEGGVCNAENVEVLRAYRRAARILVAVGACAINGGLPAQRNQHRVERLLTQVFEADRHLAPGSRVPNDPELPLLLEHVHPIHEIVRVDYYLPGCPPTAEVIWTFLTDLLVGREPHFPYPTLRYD
Chain of HtSH (soluble NAD+-reducing [NiFe]-hydrogenase, HoxFUYH) (A0A077LAI5 1-468 partner, one chain of several): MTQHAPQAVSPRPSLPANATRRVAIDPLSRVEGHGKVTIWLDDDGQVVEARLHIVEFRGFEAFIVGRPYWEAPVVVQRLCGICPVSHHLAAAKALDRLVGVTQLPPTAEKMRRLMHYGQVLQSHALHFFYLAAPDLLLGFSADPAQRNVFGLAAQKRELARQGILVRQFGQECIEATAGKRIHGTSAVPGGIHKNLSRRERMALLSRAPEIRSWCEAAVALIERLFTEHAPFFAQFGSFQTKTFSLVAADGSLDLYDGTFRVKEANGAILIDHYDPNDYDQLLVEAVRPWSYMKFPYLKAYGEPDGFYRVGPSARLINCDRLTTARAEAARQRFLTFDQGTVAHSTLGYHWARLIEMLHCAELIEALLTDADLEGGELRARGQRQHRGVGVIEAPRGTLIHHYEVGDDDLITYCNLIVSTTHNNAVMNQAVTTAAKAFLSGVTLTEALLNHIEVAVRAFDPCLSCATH

On to `Cc1cc2nc3c(=O)[nH]c(=O)nc-3n(C[C@H](O)[C@H](O)[C@H](O)COP(=O)(O)O)c2cc1C` [FMN], for which the “FMN per SH tetramer” value in series [1] was 1.07 mol/mol.
The molecule “HoxYH module of HtSH (Hydrogenophilus thermoluteolus TH-1T) (from UniProt A0A077L7R5 1-189) (complex)” returned a stoichiometry N in series [2] of 1.

B1: HtSH (soluble NAD+-reducing [NiFe]-hydrogenase, HoxFUYH) (Hydrogenophilus thermoluteolus) (protein)
chain: MTTERQRTAPGLLAALHQARSRFGRPLDAQALAELSTAFSLPPGEIAATASFYHFFQTPPARYQIHFVDHVVDHHAGVAALCNHLCAAFAIQPGQRTADARLFVGWTACAGLSDQAPAALINGRPMPRLDAARIDALIEKIQAQIPMDQWPTEWFAVTNAIHRHGPLLTWLDTTPAEAVFEHPTAHDPDAILQAVTDAGLRGRGGAGFPTATKWRFCRENADPERFLICNADEGEPGTFKDRVLLTRYPEHLFAGMILAARAIGADKAILYLRYEYQYLLPQLEAARERIASAQATVPQAERVTLEIALGAGAYVCGEESALIESLEGKPGRPRVRPPYPVTQGYLGHPTVVNNVETLVAVAAIVGNGAAWWRALGTPDSSGPKLFCVSGDVAQPGLYEFPYGVALGDVVTAARPLGTRYAVQVSGPSGTLLPATPEQLARPLAFEALPCNGTVMVFDVRRDPVAIVHHFARFFAHESCGFCTPCRVGTQLIAKTFEKIAAGYATRFDLERLAPALEAMRLASNCGFGLSAGNPVRDLIAHFRQQLEAQLQPHDFIPAFSLDAELAATRRLTGRDDPHAHLAQFEQPEVTR
For the molecule B1, the results for the Km in “purified protein [3]” and in the series “purified protein [4]” were 1200 µM and 469 µM, respectively.

One may read the stoichiometry N as the number of molecules, sites or subunits per partner or assembly. One may read the Km as the substrate concentration at which the rate is half of its maximum.
